The source of these data is US20080125491A1 (ARENA PHARMACEUTICALS, published 2008).

Where two headings read alike, the source gives them in different places.

What all share (experiment): cell-based or functional assay
Test [1] addresses HA/V5 double tagged endogenous human FPRL2 (human).
Test [2] addresses HA/V5 double-tagged endogenous human FPRL1 (human) (UniProt P25090).
Test [3] deals with HA/V5 double-tagged endogenous human FPR (human) (UniProt P21462).
In test [4] the target is T1, HA/V5 double tagged endogenous human FPRL2 (human).
T1 chain: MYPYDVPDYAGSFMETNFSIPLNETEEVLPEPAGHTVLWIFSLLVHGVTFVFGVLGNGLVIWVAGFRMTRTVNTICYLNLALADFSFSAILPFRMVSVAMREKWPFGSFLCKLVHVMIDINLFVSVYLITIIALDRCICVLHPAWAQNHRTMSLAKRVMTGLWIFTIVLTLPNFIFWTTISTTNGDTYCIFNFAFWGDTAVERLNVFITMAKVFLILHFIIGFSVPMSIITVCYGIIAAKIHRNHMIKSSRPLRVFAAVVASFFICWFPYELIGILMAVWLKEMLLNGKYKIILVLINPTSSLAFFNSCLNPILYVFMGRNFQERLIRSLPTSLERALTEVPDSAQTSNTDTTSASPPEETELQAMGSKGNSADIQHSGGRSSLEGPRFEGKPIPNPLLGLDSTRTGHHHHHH

Sequence of HA/V5 double-tagged endogenous human FPR (human) (P21462 other isoform, or with tags, fused parts or gaps): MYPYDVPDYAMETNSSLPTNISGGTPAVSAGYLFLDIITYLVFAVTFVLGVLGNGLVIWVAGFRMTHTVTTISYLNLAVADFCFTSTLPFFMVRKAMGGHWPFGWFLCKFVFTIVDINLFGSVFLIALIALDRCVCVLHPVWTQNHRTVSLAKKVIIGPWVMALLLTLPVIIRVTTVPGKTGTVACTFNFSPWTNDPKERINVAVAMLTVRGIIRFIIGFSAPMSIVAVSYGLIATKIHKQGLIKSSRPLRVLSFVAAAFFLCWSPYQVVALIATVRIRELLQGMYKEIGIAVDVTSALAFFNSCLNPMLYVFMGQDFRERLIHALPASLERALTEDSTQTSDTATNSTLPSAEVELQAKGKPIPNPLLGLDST
Sequence of HA/V5 double-tagged endogenous human FPRL1 (human) (P25090 other isoform, or with tags, fused parts or gaps): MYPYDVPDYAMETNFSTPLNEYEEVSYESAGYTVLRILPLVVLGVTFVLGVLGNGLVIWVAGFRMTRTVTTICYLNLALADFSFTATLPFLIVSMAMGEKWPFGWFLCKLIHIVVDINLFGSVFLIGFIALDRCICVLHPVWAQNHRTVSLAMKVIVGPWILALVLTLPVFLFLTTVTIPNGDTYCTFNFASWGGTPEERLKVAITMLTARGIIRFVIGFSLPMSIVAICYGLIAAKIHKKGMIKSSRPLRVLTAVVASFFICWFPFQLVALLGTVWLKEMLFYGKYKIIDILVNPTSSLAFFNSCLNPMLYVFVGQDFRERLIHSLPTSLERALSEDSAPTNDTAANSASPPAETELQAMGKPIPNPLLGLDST

For [Gly14]-Humanin (peptide), the EC50, [35S]GTPγS binding to membranes of transiently transfected CHO cells in test [1] was 72 nM; in test [2], 1500 nM. This molecule had a [35S]GTPγS binding to membranes of transiently transfected CHO cells; highest dose without significant activity in test [3] of over 10 µM.

Regarding MAPRGFSCLLLLTSEIDLPVKRRA [Humanin], in test [4], the “EC50, [35S]GTPγS binding to membranes of transiently transfected CHO cells” value is about 320 nM and the “EC50 of Humanin driven pigment aggregation in melanophore (Gi coupling)” value was about 239 nM.
